Assay results taken from the supplement of paper PMC9170038.

Test system: MS2 coat protein
Test: apparent KD of MS2 coat protein; designed switch direction (-1 OFF switch, 1 ON switch): -1; higher = weaker reporter binding
How it was run: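 Stalled E. coli RNA polymerase transcribed designed RNA switches on Illumina chips, which were then titrated with SNAP-549-labelled MS2 coat protein, doubling from 0.7 or 1.5 nM to 3 µM. Steps lasted from 0.8–1.5 h at the lowest concentration to 10–20 min at the highest. The apparent KD is each design's median over clusters of curve-fitted normalised fluorescence.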

[1] = Eterna round: R95, input ligand: microRNA oligo, concentration not stated
[2] = input ligand: microRNA oligo, concentration not stated
[3] = Eterna round: R95, input ligand: FMN 200 uM
[4] = Eterna round: R95, input ligand: none

Sequence | apparent KD of MS2 coat protein (input ligand: FMN 200 uM) [nM] | apparent KD of MS2 coat protein (input ligand: none) [nM] | apparent KD of MS2 coat protein [1] [nM] | further results
AAUAAUGAUAAGGAUAUCACUAGCGAUAGCUAGUGAGAAGGUAUCACAUGAGGAUCACCCAUGUGUUCCAAUAA [Ex6/6-A4] (Eterna round: R97, puzzle: Exclusion 6) | 35.2 | 17 |  | 
AUAAUGUAAGGAUAUCAGUCGACUAGCUUCGGCUAGUCGACUGAGAAGGUACAUGAGGAUCACCCAUGUAGAUC [E4/19-A1] (Eterna round: R97, puzzle: Exclusion 4) | 363 | 66 |  | 
GCGUAUGAGCAGGAUAUCCGACGGGAAUCCAAAGGAGAAGGGCUCACAUGAGGAUCACCCAUGUGGUCCUAAAC [Vequat] (puzzle: Exclusion 6) |  |  | 19.4 | 
CCUCUACAUGAGGAUCACCCAUGUCAGGAUAUCGUGUGUUUUUUUUCGGCCGCGCGUGCGAGAAGGGACGUCUU (puzzle: Exclusion 1) |  |  | 30.1 | 
ACAUGUCAUUGAGGAUAUUGCACACAUGAGGAUCACCCAUGUAUACGGUUGCUCUUGCGUGAGUUCGAGAAGGCGAUGUACAUU [Ex NG2 #87] (Eterna round: R96, puzzle: Exclusion NG 2) | 356 | 159 |  | apparent KD of MS2 coat protein [2]: 168 nM
AAUAAGUGAGGAUAUGCGUCUGGUCCCGGGAGGGCUAUAUAACAUGAGGAUCACCCAUGUAGAAGGCACAAUAA [Excls2IV] (puzzle: Exclusion 2) |  |  | 15.2 | 
CGGUGCAGGCUGCGGUCCUACAUGAGGAUCACCCAUGUGGUCCGGUGGCGUGGGUCGCCGGACUUGGCUCGUCUUGU [salish99_S_TOV1_R5_015] (Eterna round: R97, puzzle: Sensor, turn-off variant 1) | 56.8 | 75.6 |  | 
AGGUGACUGGUGAGGAUAUCGUGUUCGAAAGAACGUGAGAAGGCACAUGAGGAUCACCCAUGUGAUCCUCAUCG [Omei Ex4B A30] (Eterna round: R97, puzzle: Brourd's mod of Exclusion 4) | 101 | 27 |  | 
UCAUGUCCAGAGGAUAUGUAGCGGGAGACCGCAACAGAAGGCUGGACAUGAGGAUCACCCAUGUGCGCCUUCCA [jl-ex3-4.26 ViennaUCT mod] (Eterna round: R97, puzzle: Exclusion 6) | 21.8 | 17 |  | 
ACAAGCUUUUUGCAUGUUAGGUUUGUUGCUUCGUAUGUAACAUGAGGAUCACCCAUGUAUUACUGAUGUCGUCGUUU [JR_SV3TOV2_Sub089] (puzzle: Sensor v3, turn-off variant 2) |  |  | 17.2 | apparent KD of MS2 coat protein [3]: 18.4 nM; apparent KD of MS2 coat protein [4]: 18.2 nM
AUACACUGAGGAUAUACAUGAGGAUCACCCAUGUGGAAAGCCUCUGGCGGAACUUCGUGUAGAAGGCAGCCACG [Esatdi] (puzzle: Exclusion 3) |  |  | 13.9 | apparent KD of MS2 coat protein [3]: 18 nM; apparent KD of MS2 coat protein [4]: 13.4 nM
ACGUAUAGAGGAUAUAGUGAAUAUUACAUGAGGAUCACCCAUGUUCUUCAAAGUAUAUUCCUAGAAGGCUAAUGAA [EX-5 Malc#11] (puzzle: Exclusion 5) |  |  | 148 | apparent KD of MS2 coat protein [3]: 537 nM; apparent KD of MS2 coat protein [4]: 171 nM
CCCGGGCGAGGAUAUACAUGAGGAUCACCCAUGUUGGGCUAGUUGGUGGCUCCUCGCGGUAGAAGGCGCACGCG [Edna] (puzzle: Exclusion 3) |  |  | 64.5 | apparent KD of MS2 coat protein [3]: 123 nM; apparent KD of MS2 coat protein [4]: 74.6 nM
UAUUCGCGAGGAUAUGCAGUCGAGUCCAUUACGUGUCUGGGACUUGAGGAUCACCCAAGUAGAAGGCGUCUCAG [salish99_ex2_r4_641] (Eterna round: R97, puzzle: Exclusion 2) | 160 | 194 |  | 
CUGAGCUGAGGAUAUACAUGAGGAUCACCCAUGUAAAGCAGCUUGCGUACAAGCAGAUGUAGAAGGCAGUUCGG [Mod of JL 17 - Jieux - Exclusion 3] (Eterna round: R97, puzzle: Exclusion 3) | 24.1 | 14.7 |  | 
UAAUUAAUUAAUUAAUAAUACAUGAGGAUCACCCAUGUAGAUCCUACAUACAAGCUAAGUAGCUCGUCUUAUAAUUA [Stov1/2-A1] (Eterna round: R97, puzzle: Sensor, turn-off variant 1) | 364 | 353 |  | 
UUUUUGUGAGGAUAUGCGUAGUAGAACAAUAGUACUACUACGUAGAAGGCACAUGAGGAUCACCCAUGUUCCUC [Fiskers Ex 4 Super stable 44 mod 15] (puzzle: Exclusion 4) |  |  | 36.4 | 
AUUAUAUAGAAAGGAUAUAGAUUAUUAUUUUAACAUGAGGAUCACCCAUGUAGCCUUAUGUAUAACUAGAAGGUUCAUUUAUUA [Title] (Eterna round: R96, puzzle: Exclusion NG 2) |  |  |  | apparent KD of MS2 coat protein [2]: 57.9 nM
